Reference: the supplement of paper PMC7877785
± gives the uncertainty stated by the source.

Experiment: self-splicing fitness, log relative to wild type (ln ratio); higher = more splicing; Tetrahymena group I intron in knt gene, E. coli kanamycin selection, DiMSum; sequences stand for … in CUCUCU…GGAGGGAAAAGUUAUCAGGCAUGCACCUGGUAGCUAGUCUUUAAACCAAUAGAUUGCAUCGGUUUAAAAGGCAAGACCGUCAAAUUGCGGGAAAGGGGUCAACAGCCGUUCAGUACCAAGUCUCAGGGGAAACUUUGAGAUGGCCUUGCAAAGGGUAUGGUAAUAAGCUGACGGACAUGGUCCUAACCACGCAGCCAAGUCCUAAGUCAACAGAUCUUCUGUUGAUAUGGAUGCAGUUCACAGACUAAAUGUCGGUCGGGGAAGAUGUAUUCUUCUCAUAAGAUAUAGUCGGACCUCUCCUUAAUGGGAGCUAGCGGAUGAAGUGAUGCAACACUGGAGCCGCUGGGAACUAAUUUGUAUGCGAAAGUAUAUUGAUUAGUUUUGGAGUACUCGUGGUCG
Method in brief: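 DiMSum derived fitness as the error-weighted combination of fold changes across replicates, kanamycin versus no kanamycin, normalised to wild type. E. coli BL21(DE3) held the library, which randomised all eight P1ex-region intron nucleotides within the knt kanamycin-resistance gene on pET-22b(+). Six replicate transformations grew overnight at 37°C or 30°C on LB agar with or without 25 μg/mL kanamycin, also containing 100 μg/mL carbenicillin, 50 μM IPTG and 0.2% rhamnose, and pooled colonies were amplicon-sequenced on an Illumina HiSeq 2500.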

AACUAGCAAUAUUACGUUAU
self-splicing fitness (ln) (30 °C): -2.63 ± 0.11 | self-splicing fitness (ln) (37 °C): -1.75 ± 0.12

AACUAGCAAUAUUACGUUGA
self-splicing fitness (ln) (30 °C): -1.52 ± 0.11 | self-splicing fitness (ln) (37 °C): -1.04 ± 0.12

AAGAAGCAAUAUUACGAAAC
self-splicing fitness (ln) (30 °C): -1.82 ± 0.17 | self-splicing fitness (ln) (37 °C): -0.859 ± 0.15

AAGAAGCAAUAUUACGAAAG
self-splicing fitness (ln) (30 °C): -3.5 ± 0.21 | self-splicing fitness (ln) (37 °C): -1.69 ± 0.13

AAGAAGCAAUAUUACGACGU
self-splicing fitness (ln) (30 °C): -0.168 ± 0.068 | self-splicing fitness (ln) (37 °C): 0.298 ± 0.1

AAGAAGCAAUAUUACGAGAG
self-splicing fitness (ln) (30 °C): -4.49 ± 0.36 | self-splicing fitness (ln) (37 °C): -2.41 ± 0.2

AAGAAGCAAUAUUACGAGUG
self-splicing fitness (ln) (30 °C): -2.04 ± 0.12 | self-splicing fitness (ln) (37 °C): -1.23 ± 0.13

AAGAAGCAAUAUUACGAUGA
self-splicing fitness (ln) (30 °C): -0.962 ± 0.096 | self-splicing fitness (ln) (37 °C): -0.249 ± 0.09

AAGAAGCAAUAUUACGAUUA
self-splicing fitness (ln) (30 °C): -0.809 ± 0.11 | self-splicing fitness (ln) (37 °C): 0.095 ± 0.11

AAGAAGCAAUAUUACGCACU
self-splicing fitness (ln) (30 °C): -0.114 ± 0.063 | self-splicing fitness (ln) (37 °C): -0.103 ± 0.081

AAGAAGCAAUAUUACGCCAA
self-splicing fitness (ln) (30 °C): -2.24 ± 0.25 | self-splicing fitness (ln) (37 °C): -1.04 ± 0.21

AAGAAGCAAUAUUACGCCCC
self-splicing fitness (ln) (30 °C): -0.875 ± 0.12 | self-splicing fitness (ln) (37 °C): -0.358 ± 0.17

AAGAAGCAAUAUUACGCCUU
self-splicing fitness (ln) (30 °C): -3.53 ± 0.4 | self-splicing fitness (ln) (37 °C): -2.17 ± 0.33

AAGAAGCAAUAUUACGCUAG
self-splicing fitness (ln) (30 °C): -2.36 ± 0.14 | self-splicing fitness (ln) (37 °C): -0.458 ± 0.13

AAGAAGCAAUAUUACGCUCU
self-splicing fitness (ln) (30 °C): -3.54 ± 0.24 | self-splicing fitness (ln) (37 °C): -1.37 ± 0.18

AAGAAGCAAUAUUACGCUGA
self-splicing fitness (ln) (30 °C): -2.47 ± 0.14 | self-splicing fitness (ln) (37 °C): -2.04 ± 0.18

AAGAAGCAAUAUUACGGAGA
self-splicing fitness (ln) (30 °C): -3.38 ± 0.19 | self-splicing fitness (ln) (37 °C): -2.62 ± 0.2

AAGAAGCAAUAUUACGGCAC
self-splicing fitness (ln) (30 °C): -0.764 ± 0.08 | self-splicing fitness (ln) (37 °C): -0.298 ± 0.12

AAGAAGCAAUAUUACGGCAU
self-splicing fitness (ln) (30 °C): 0.143 ± 0.12 | self-splicing fitness (ln) (37 °C): -0.43 ± 0.16

AAGAAGCAAUAUUACGGCCC
self-splicing fitness (ln) (30 °C): -0.651 ± 0.13 | self-splicing fitness (ln) (37 °C): -0.518 ± 0.16

AAGAAGCAAUAUUACGGGAA
self-splicing fitness (ln) (30 °C): -1.79 ± 0.14 | self-splicing fitness (ln) (37 °C): -1.85 ± 0.13

AAGAAGCAAUAUUACGGGGG
self-splicing fitness (ln) (30 °C): -2.79 ± 0.21 | self-splicing fitness (ln) (37 °C): -2.09 ± 0.23

AAGAAGCAAUAUUACGGUAG
self-splicing fitness (ln) (30 °C): -3.76 ± 0.19 | self-splicing fitness (ln) (37 °C): -1.83 ± 0.17

AAGAAGCAAUAUUACGGUUG
self-splicing fitness (ln) (30 °C): -2.72 ± 0.092 | self-splicing fitness (ln) (37 °C): -1.32 ± 0.11

AAGAAGCAAUAUUACGUAAC
self-splicing fitness (ln) (30 °C): -2.35 ± 0.14 | self-splicing fitness (ln) (37 °C): -1.2 ± 0.12

AAGAAGCAAUAUUACGUACG
self-splicing fitness (ln) (30 °C): -0.925 ± 0.092 | self-splicing fitness (ln) (37 °C): -0.719 ± 0.11

AAGAAGCAAUAUUACGUCAC
self-splicing fitness (ln) (30 °C): -3.46 ± 0.21 | self-splicing fitness (ln) (37 °C): -3 ± 0.28

AAGAAGCAAUAUUACGUGCG
self-splicing fitness (ln) (30 °C): -0.93 ± 0.079 | self-splicing fitness (ln) (37 °C): -0.0711 ± 0.1

AAGAAGCAAUAUUACGUUAC
self-splicing fitness (ln) (30 °C): -3.33 ± 0.17 | self-splicing fitness (ln) (37 °C): -3.57 ± 0.25

AAGAAGCAAUAUUACGUUCU
self-splicing fitness (ln) (30 °C): -2.55 ± 0.11 | self-splicing fitness (ln) (37 °C): -1.26 ± 0.1

AAGCAGCAAUAUUACGAAGA
self-splicing fitness (ln) (30 °C): -3.03 ± 0.19 | self-splicing fitness (ln) (37 °C): -1.44 ± 0.097

AAGCAGCAAUAUUACGACCC
self-splicing fitness (ln) (30 °C): -1.78 ± 0.14 | self-splicing fitness (ln) (37 °C): -0.112 ± 0.15

AAGCAGCAAUAUUACGACGC
self-splicing fitness (ln) (30 °C): -0.811 ± 0.092 | self-splicing fitness (ln) (37 °C): -0.525 ± 0.13

AAGCAGCAAUAUUACGACUC
self-splicing fitness (ln) (30 °C): -0.122 ± 0.097 | self-splicing fitness (ln) (37 °C): 0.677 ± 0.13

AAGCAGCAAUAUUACGAGUG
self-splicing fitness (ln) (30 °C): -2.99 ± 0.1 | self-splicing fitness (ln) (37 °C): -2.69 ± 0.11

AAGCAGCAAUAUUACGAUUG
self-splicing fitness (ln) (30 °C): -2.54 ± 0.13 | self-splicing fitness (ln) (37 °C): -1.9 ± 0.14

AAGCAGCAAUAUUACGCAAC
self-splicing fitness (ln) (30 °C): -2.62 ± 0.12 | self-splicing fitness (ln) (37 °C): -1.49 ± 0.13
